These results are taken from patent publication US20220135687A1 (NANJING LEGEND BIOTECH, published 2022).

B1: 42G2D7C3 (antibody, V domains shown)
VH: DVQLLESGPGLVKPSQSLSLTCSVTGYSITSGYYWNWIRQFPGNNLEWMGSINYDGSNDYNPSLQDRISITRDTSKNQFFLKLNSVTTEDTATYYCARRLDYWGQGTTLIVSS
VL: QIVLTQSPAIMSASPGEKVTISCSASSFINYMYWYQQKPGSSPKPWILRTSTLASGVPARFSGSGSGTSYSLTISSMEAEDAATYYCQQYHSYPLTFGAGTKLELK
notes: Mouse mAb from hybridoma culture
B2: 1H1G4D9 (antibody, V domains shown)
VH: EGQLQQSGAELVKPGASVILSCTASGFNIKDTYIHWLNQRPEQGLEWIGRIEPANGNTKYDPTFQGKATITADTSSNTAYLQLTSLTSEDTAVYYCSRGGIYYYGSHWYFDVWGAGTLVTVSS
VL: DVLMTQTPLSLPVSLGDQASISCRSSQNIVYSDGDTYLEWYLQKPGQSPKLLIFKVSNRFSGVPDRFSGSGSGTDFTLKISRVEAEDLGVYYCFQGSHVPFTFGSGTKLEIK
notes: as for B1
B3: 30A6B2D9 (antibody, V domains shown)
VH: B2 VH with E10G, I19N, L37M, N38K, E52A, A54T, T74S, L83V, T84S, L118T
VL: B2 VL with D1S, S61F, S81N
notes: as for B1
B4: 25G1F9F8 (antibody, V domains shown)
VH: EGQLQQSGAELVKPGASVNLSCTASGFNIKDTYIHWVKQRPDQGLEWIGRIAPTNGNAKFHPTFQGKATITADTSSNTAYLQLSSLTSEDTAVYYCTRGGIYYYGTHWYFDVWGAGTTVTVSS
VL: B2 VL with T5N, D35N, K55Q, V90F
notes: as for B1
B5: 21D1F4D4 (antibody, V domains shown)
VH: QVQLQQPGAEVVRPGASVKLSCKASGYTFTNYWISWVKQRPGQGLEWIGNIYPSDSYTNYNQNFKDKATLTVDKSSSTAYMQLSSPTSEDSAVYYCTTGIITVIATRDDYWGQGTTLTVSS
VL: QIVLTQSPAIMSASPGEKVTLTCSASSSVSSSYLYWYQQKPGSSPKLWIYSTSNLASGVPARFSGSGSGTSYSLTVSSMEAEDAASYFCHQWSSYPFTFGSGTKLEIK
notes: as for B1
B6: 30A7B5D9 (antibody, V domains shown)
VH: KVQLQQSGAELVKPGTSVKLSCKASGYTFTEYIIYWIKQRSGQGLEWIGWFYPGTGSIKYNEKFKDKATLTADKSSSTVFMELSRLTSEDSAVYFCARHEEGNLWFAYWGQGTLVTVSA
VL: QIVLTQSPALMSASPGERVTMTCSASSDVSYMYWYQQKPRSSPKPWIYLTSNLASGVPARFSGSGSGTSYSLTISSMEAEDAATYYCQQWTGNPLTFGAGTKLELK
notes: as for B1
B7: 53C1_VH2-VL1.M1 (antibody, human IgG1, kappa, N297A, V domains shown)
VH: EVQLVQSGAEVKKPGASVKVSCKASGYIFTGYGITWVRQAPGQGLEWIGEIFPRRVNTYYSEKFKGRATLTTDTSTSTAYMELRSLRSDDTAVYFCARDYDPYFALDYWGQGTTVTVSS
VL: DIQMTQSPSSLSASVGDRVTITCRASQDVSTAVDWYQQKPGKAPKLLIYSASYRYTGVPDRFSGSGSGTDFTFTISSLQPEDIATYYCQQHYSIPFTFGQGTKLEIKR
notes: Humanized, hIgG1 effector-less Fc, kappa; see recheck on K24R in the .M1 light chain
B8: 53C1_VH3.M3-VL1.M1 (antibody, human IgG1, kappa, N297A, V domains shown)
VH: B7 VH with V20L, N57Q, T72A
VL: B7 VL
notes: Humanized, VH N57Q in the entry; hIgG1 effector-less Fc, kappa; see recheck on K24R in the .M1 light chain
B9: 29A8_VH-VL.M1 (antibody, human IgG1, kappa, N297A, V domains shown)
VH: DVQLQGSGPGLVKPSQSLSLTCTVTGYSITSDFAWDWIRQFPGNKLEWMGHIRFSGTTSYNPSLKSRISITRDTSKNQFFLQLNSVTSEDTATYYCARSTLITKGFFDYWGQGTTLTVSS
VL: DIVMTQSHKFMSTSVGGRVSITCRASQDVSPAVAWYQQKPGQSPKLLIYWASTRHTGVPDRFTGSGSGTDFTLTISSVQTEDLALYYCQQHYSTPWTFGGGTKLEIKR
notes: human IgG1 effector-less Fc, kappa
B10: 53C1_VH-VL.M1 (antibody, human IgG1, kappa, N297A, V domains shown)
VH: QVQLQQSGNELARPGASVRLSCKASGYIFTGYGITWVRQRPGQGLEWIGEIFPRRVNTYYSEKFKGRATLTADISSSTAYMELRSLTSEDSAVYFCARDYDPYFALDYWGQGTSVTVSS
VL: DIVMTQSHKFMSTSVGDRVSITCRASQDVSTAVDWYQQKPGQSPKLLIYSASYRYTGVPDRFTGSGSGTAFTFTISGEQAEDLAVYYCQQHYSIPFTFGGGTKLEIKR
notes: Chimeric mutant, VL K24R in the entry; human IgG1 effector-less Fc, kappa
B11: 53C1_VH.M1-VL.M1 (antibody, human IgG1, kappa, N297A, V domains shown)
VH: B10 VH with N57S
VL: B10 VL
notes: Chimeric mutant (VH N57S, VL K24R in the entries); human IgG1 effector-less Fc, kappa
B12: 53C1_VH.M2-VL (antibody, human IgG1, kappa, N297A, V domains shown)
VH: B10 VH with N57A
VL: B10 VL with R24K
notes: Chimeric mutant, VH N57A in the entry; human IgG1 effector-less Fc, kappa
B13: 53C1_VH.M2-VL.M1 (antibody, human IgG1, kappa, N297A, V domains shown)
VH: B10 VH with N57A
VL: B10 VL
notes: Chimeric mutant (VH N57A, VL K24R in the entries); human IgG1 effector-less Fc, kappa
B14: 53C1_VH.M3-VL (antibody, human IgG1, kappa, N297A, V domains shown)
VH: B10 VH with N57Q
VL: B10 VL with R24K
notes: Chimeric mutant, VH N57Q in the entry; human IgG1 effector-less Fc, kappa
B15: 53C1_VH.M1-VL (antibody, human IgG1, kappa, N297A, V domains shown)
VH: B10 VH with N57S
VL: B10 VL with R24K
notes: Chimeric mutant, VH N57S in the entry; human IgG1 effector-less Fc, kappa
B16: 53C1_VH.M3-VL.M1 (antibody, human IgG1, kappa, N297A, V domains shown)
VH: B10 VH with N57Q
VL: B10 VL
notes: Chimeric mutant (VH N57Q, VL K24R in the entries); human IgG1 effector-less Fc, kappa
B17: 29A8_VH2-VL1.M1 (antibody, human IgG1, kappa, N297A, V domains shown)
VH: EVQLQESGPGLVKPSETLSLTCTVSGYSITSDFAWDWIRQFPGKGLEWMGHIRFSGTTSYNPSLKSRITISVDTSKNQFSLKLSSVTAADTAVYYCARSTLITKGFFDYWGQGTLVTVSS
VL: DIQMTQSPSSLSASVGDRVTITCRASQDVSPAVAWYQQKPGKAPKLLIYWASTRHTGVPSRFSGSGSGTDFTLTISSLQPEDFATYYCQQHYSTPWTFGQGTKVEIKR
notes: as for B7
B18: 29A8_VH3-VL1.M1 (antibody, human IgG1, kappa, N297A, V domains shown)
VH: B17 VH with S80F, V93T, V116L
VL: B17 VL
notes: as for B7
B19: 25B6E5D8 (antibody, V domains shown)
VH: QFQLQQSGAELVRPGSSVKISCKASGYEFSSNWMNWVKQRPGQSLEWIGQIWPGDGDTNYNGKFRGKATLTSDKSSSTAYMQLNSLTSEDSAVYFCARGRASFYFDYWGQGTALTVSS
VL: DIVLTQSPASLAVSLGQRATISCRASESVDDYGNSFMHWYQQKPGQPPKLLIYRASNLESGIPVRFSGSGSRTDFTLTINPVEADDVATYYCQQSNEDPHTFGGGTKLEIK
notes: as for B1

Where a chain is given by its changes, count along the chain named. Names and notes keep the numbering of the source.

What is called IC50 is the concentration at which inhibition is half-maximal. The Kd is the constant that tells how readily two partners part at equilibrium. By koff is commonly meant the rate constant with which the complex falls apart. A higher koff goes with a short-lived complex. What is called kon is the second-order rate constant of association. Lower therefore signals slower complex formation. For orientation: EC50 means the concentration needed to bring the measured effect to its halfway point.

T1 sequence (Q9NZQ7 19-290, one chain of several): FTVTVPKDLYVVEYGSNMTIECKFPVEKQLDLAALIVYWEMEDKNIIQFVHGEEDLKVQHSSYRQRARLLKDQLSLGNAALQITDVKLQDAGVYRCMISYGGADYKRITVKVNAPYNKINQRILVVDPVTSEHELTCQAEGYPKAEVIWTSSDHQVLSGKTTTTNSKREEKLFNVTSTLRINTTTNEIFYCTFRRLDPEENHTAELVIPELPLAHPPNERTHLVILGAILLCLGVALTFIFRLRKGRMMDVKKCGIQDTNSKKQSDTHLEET
T2 sequence (Q9NZQ7 19-238): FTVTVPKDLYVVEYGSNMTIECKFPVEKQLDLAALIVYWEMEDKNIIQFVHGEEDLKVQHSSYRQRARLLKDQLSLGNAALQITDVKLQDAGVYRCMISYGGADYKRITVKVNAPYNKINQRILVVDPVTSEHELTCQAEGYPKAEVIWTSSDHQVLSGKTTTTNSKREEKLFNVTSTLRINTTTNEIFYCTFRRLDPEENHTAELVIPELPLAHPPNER

The first assay concerns the target T1, human PD-L1 expressed on CHO-K1 cells (Genscript, Cat #M00543) (human, UniProt Q9NZQ7 19-290).
T1 construct: also called PD-L1 cell line
In words: FACS competition vs biotin-PD-1-Fc on CHO-K1/human PD-L1 cells. The procedure:
A series of diluted mouse mAbs (concentration starting from 900 nM, 3 fold dilution, 50 μl per well) were added afterwards. The mixture was incubated at 4° C. for 30 minutes, washed twice with wash buffer, followed by the addition of PEcy5/streptavidin (1 μg/ml, 150 μl/well). The plates were again incubated at 4° C. for 30 minutes before the cells in each well were analyzed by FACSCalibur (BD Bioscience, San Jose, Calif.) and Flowjo software.
Molecule B1 returned an IC50 of 2.89 nM.

In turn, B2 gave an IC50 of 11.8 nM.

As for B3, the IC50 was 8.35 nM.

B4 came in with an IC50 of 13.8 nM.

Molecule B5 registered a half-maximal inhibitory concentration (IC50) of 3.79 nM.

As to B6, the IC50 worked out at 4.43 nM.

Another assay addresses T2, His-tagged PD-L1 ECD protein (ACROBiosystems) (human, UniProt Q9NZQ7 19-238).
T2 construct: Bought protein; also called PD-L1-His; PD-L1/His; not shown: His tag
The assay can be described thus: SPR, supernatant IgG captured, PD-L1-His analyte.
Regarding B7, the affinity, expressed as Kd, was 1 nM; the koff was found to be 0.00025 s⁻¹; the kon amounted to 240000 M⁻¹ s⁻¹.

B8: the Kd is 0.21 nM, the koff came to 7.3e-05 s⁻¹ and the kon is 350000 M⁻¹ s⁻¹.

A further assay has as its target T2, His-tagged PD-L1 ECD protein …. In words: SPR, supernatant IgG captured, PD-L1-His analyte. This is another data set of the same source.
For B9, binding was put at a Kd of 0.29 nM, the koff stood at 0.00015 s⁻¹ and the kon was found to be 530000 M⁻¹ s⁻¹.

In turn, B10 displayed a Kd of 0.76 nM, a koff of 0.0002 s⁻¹ and an association rate constant (kon) of 260000 M⁻¹ s⁻¹.

Molecule B11 showed a Kd of 0.86 nM, a koff of 0.0002 s⁻¹ and a kon of 240000 M⁻¹ s⁻¹.

B12 had a Kd of 0.81 nM, a koff of 0.00016 s⁻¹ and a kon of 200000 M⁻¹ s⁻¹.

For the molecule B13, binding was put at a Kd of 0.94 nM, the koff was determined as 0.00018 s⁻¹ and the kon amounted to 200000 M⁻¹ s⁻¹.

Molecule B14 showed a Kd of 0.53 nM, a koff of 0.00014 s⁻¹ and a kon of 260000 M⁻¹ s⁻¹.

Take B15: the equilibrium dissociation constant (Kd) was found to be 0.87 nM, the koff amounted to 0.00021 s⁻¹ and the kon came to 240000 M⁻¹ s⁻¹.

Regarding B16, binding was put at a Kd of 0.56 nM, the koff was determined as 0.00014 s⁻¹ and the kon was 260000 M⁻¹ s⁻¹.

The target is the same in the next assay. In words: SPR, supernatant IgG captured, PD-L1-His analyte. This is another data set of the same source.
The molecule B17 registered a Kd of 1.3 nM, a koff of 0.00061 s⁻¹ and a kon of 470000 M⁻¹ s⁻¹.

For the molecule B18, the affinity, expressed as Kd, was 1.1 nM; the koff came to 0.00051 s⁻¹; the kon came out at 480000 M⁻¹ s⁻¹.

The target in another assay is T1, human PD-L1 expressed on CHO-K1 cells …. The assay can be described thus: FACS, CHO-K1/human PD-L1 cells. The procedure:
PD-L1 stable cell line binding activity assessment of 12 mouse mAbs was carried out using FACS. CHO-K1 cells expressing human PD-L1 (Genscript, Cat #M00543) were dissociated from adherent culture flasks and mixed with varying concentrations of antibodies. The antibody and cells were incubated for 30 minutes at room temperature, washed three times with FACS buffer (PBS containing 1% BSA). PE-labeled goat anti-mouse IgG (minimal x-reactivity) secondary antibody (BioLegend, Cat #405307) was added and incubated at room temperature for 15 minutes. Cells were washed again with FACS buffer and analyzed by FACSCalibur (BD Bioscience, San Jose, Calif.) and Flowjo software. Data were analyzed with Prism 6 (GraphPad Software, San Diego, Calif.) using non-linear regression, and EC₅₀ values were calculated (FIGS. 2A-2L and Table 3).
(Flow cytometry measures light scatter and fluorescence of single cells or particles in a stream.)
For the molecule B1, a half-maximal response (EC50) required 3.29 nM and the “Top (best-fit value)” value is 1780.

For B2, a half-maximal effect (EC50) was put at 12.3 nM and the “Top (best-fit value)” value amounted to 1760.

On to B3, for which the EC50 turned out to be 11.1 nM and the “Top (best-fit value)” value was 1640.

With B4, the 50% effective concentration (EC50) was 18.1 nM and the “Top (best-fit value)” value amounted to 1750.

With B19, it took 4.5 nM to reach a half-maximal effect (EC50) and the “Top (best-fit value)” value was found to be 1410.

For the molecule B5, the EC50 was 9.37 nM and the “Top (best-fit value)” value is 1960.

In the case of B6, a half-maximal effect (EC50) was put at 6.12 nM and the “Top (best-fit value)” value was found to be 1720.
